The text below walks through data of article PMC4066579 (Nature methods, 2009).

Data set [1] deals with the molecule itself. The experiment in a line: native MS.
Data set [2] concerns the molecule itself. The experiment in a line: native MS. This is another data set of the same source.

Like-named read-outs stand apart in the source and are kept apart here.

B1: MexB (natural protein, Pseudomonas aeruginosa strain PAO1, UniProt P52002 1-1046, looked up)
chain: MSKFFIDRPIFAWVIALVIMLAGGLSILSLPVNQYPAIAPPAIAVQVSYPGASAETVQDTVVQVIEQQMNGIDNLRYISSESNSDGSMTITVTFEQGTDPDIAQVQVQNKLQLATPLLPQEVQRQGIRVTKAVKNFLMVVGVVSTDGSMTKEDLSNYIVSNIQDPLSRTKGVGDFQVFGSQYSMRIWLDPAKLNSYQLTPGDVSSAIQAQNVQISSGQLGGLPAVKGQQLNATIIGKTRLQTAEQFENILLKVNPDGSQVRLKDVADVGLGGQDYSINAQFNGSPASGIAIKLATGANALDTAKAIRQTIANLEPFMPQGMKVVYPYDTTPVVSASIHEVVKTLGEAILLVFLVMYLFLQNFRATLIPTIAVPVVLLGTFGVLAAFGFSINTLTMFGMVLAIGLLVDDAIVVVENVERVMAEEGLSPREAARKSMGQIQGALVGIAMVLSAVFLPMAFFGGSTGVIYRQFSITIVSAMALSVIVALILTPALCATMLKPIEKGDHGEHKGGFFGWFNRMFLSTTHGYERGVASILKHRAPYLLIYVVIVAGMIWMFTRIPTAFLPDEDQGVLFAQVQTPPGSSAERTQVVVDSMREYLLEKESSSVSSVFTVTGFNFAGRGQSSGMAFIMLKPWEERPGGENSVFELAKRAQMHFFSFKDAMVFAFAPPSVLELGNATGFDLFLQDQAGVGHEVLLQARNKFLMLAAQNPALQRVRPNGMSDEPQYKLEIDDEKASALGVSLADINSTVSIAWGSSYVNDFIDRGRVKRVYLQGRPDARMNPDDLSKWYVRNDKGEMVPFNAFATGKWEYGSPKLERYNGVPAMEILGEPAPGLSSGDAMAAVEEIVKQLPKGVGYSWTGLSYEERLSGSQAPALYALSLLVVFLCLAALYESWSIPFSVMLVVPLGVIGALLATSMRGLSNDVFFQVGLLTTIGLSAKNAILIVEFAKELHEQGKGIVEAAIEACRMRLRPIVMTSLAFILGVVPLAISTGAGSGSQHAIGTGVIGGMVTATVLAIFWVPLFYVAVSTLFKDEASKQQASVEKGQ
Consider B1, for which the stoichiometry N – broadly, a count of units in the complex or per binding partner – in “native MS [1]” came out at 3.

B2: EmrE-EFE(1–113), unmodified (free N-terminal methionine) (natural protein)
chain: MNPYIYLGGAILAEVIGTTLMKFSEGFTRLWPSVGTIICYCASFWLLAQTLAYIPTGIAYAIWSGVGIVLISLLSWGFFGQRLDLPAIIGMMLICAGVLIINLLSRSTPHEFE
On to B2, for which the “stoichiometry N” value in the data set “native MS [2]” turned out to be 2.

B3: EmrE-EFE(1–113), N-terminally formylated (natural protein)
chain: MNPYIYLGGAILAEVIGTTLMKFSEGFTRLWPSVGTIICYCASFWLLAQTLAYIPTGIAYAIWSGVGIVLISLLSWGFFGQRLDLPAIIGMMLICAGVLIINLLSRSTPHEFE
modifications: formylation at an N-terminal methionine
In the case of B3, the “stoichiometry N” value in the data set “native MS [2]” was 2.

B4: MacB (natural protein, UniProt P75831 1-648, looked up)
chain: MTPLLELKDIRRSYPAGDEQVEVLKGISLDIYAGEMVAIVGASGSGKSTLMNILGCLDKATSGTYRVAGQDVATLDADALAQLRREHFGFIFQRYHLLSHLTAEQNVEVPAVYAGLERKQRLLRAQELLQRLGLEDRTEYYPAQLSGGQQQRVSIARALMNGGQVILADEPTGALDSHSGEEVMAILHQLRDRGHTVIIVTHDPQVAAQAERVIEIRDGEIVRNPPAIEKVNVTGGTEPVVNTVSGWRQFVSGFNEALTMAWRALAANKMRTLLTMLGIIIGIASVVSIVVVGDAAKQMVLADIRSIGTNTIDVYPGKDFGDDDPQYQQALKYDDLIAIQKQPWVASATPAVSQNLRLRYNNVDVAASANGVSGDYFNVYGMTFSEGNTFNQEQLNGRAQVVVLDSNTRRQLFPHKADVVGEVILVGNMPARVIGVAEEKQSMFGSSKVLRVWLPYSTMSGRVMGQSWLNSITVRVKEGFDSAEAEQQLTRLLSLRHGKKDFFTWNMDGVLKTVEKTTRTLQLFLTLVAVISLVVGGIGVMNIMLVSVTERTREIGIRMAVGARASDVLQQFLIEAVLVCLVGGALGITLSLLIAFTLQLFLPGWEIGFSPLALLLAFLCSTVTGILFGWLPARNAARLDPVDALARE
As for B4, the “stoichiometry N” value in “native MS [1]” stood at 2.
